Target: human high affinity Fc gamma receptor, Fc gamma RI (human) (UniProt P12314)
Assay: enzymatic cell-binding assay

UniProt P12314, sequence (P12314 16-374): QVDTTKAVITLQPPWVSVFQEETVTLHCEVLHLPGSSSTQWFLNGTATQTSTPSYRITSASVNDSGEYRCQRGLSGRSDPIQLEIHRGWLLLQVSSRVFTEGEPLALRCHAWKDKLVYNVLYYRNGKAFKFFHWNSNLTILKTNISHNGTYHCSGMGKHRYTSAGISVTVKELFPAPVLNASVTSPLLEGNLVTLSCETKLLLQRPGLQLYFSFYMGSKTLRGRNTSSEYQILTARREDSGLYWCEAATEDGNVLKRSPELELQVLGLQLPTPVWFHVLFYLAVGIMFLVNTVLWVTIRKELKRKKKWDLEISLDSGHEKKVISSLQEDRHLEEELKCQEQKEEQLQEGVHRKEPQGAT

| Ka [M⁻¹] | fold reduction in binding activity relative to IgG1 and IgG3 [fold] | Substance |
| --- | --- | --- |
| 2e+08 |  | CH1-deleted chimeric anti-dansyl IgG3 (IgG3 ΔCH1) (antibody) |
| 1.2e+09 |  | chimeric anti-dansyl IgG3 (murine variable regions, human IgG3 constant region, human kappa light chain) (antibody) |
|  | 10 | chimeric anti-dansyl IgG4 (murine variable regions, human IgG4 constant region, human kappa light chain) (antibody) |
| 3.8e+08 |  | chimeric anti-dansyl IgG4(Leu[234]) (antibody) |

Continued, substance first:

| Substance | Ka [M⁻¹] | fold reduction in binding activity relative to IgG1 and IgG3 [fold] |
| --- | --- | --- |
| chimeric anti-dansyl IgG3 bearing a hinge encoded by the first (unique) gamma 3 hinge exon (IgG3h1) (antibody) | 2.2e+08 |  |
| chimeric anti-dansyl IgG3(Ser[331]) (antibody) | 3.1e+08 |  |
| chimeric anti-dansyl IgG4(Leu[234], Pro[331]) (antibody) | 1.3e+08 |  |
| exon-exchange chimeric anti-dansyl IgG 2232 (IgG2 with a gamma 3 CH2 domain) (antibody) | 2.8e+08 |  |
| exon-exchange chimeric anti-dansyl IgG 3332 (IgG3 bearing the CH3 domain of IgG2) (antibody) | 1.8e+09 |  |
